Laboratory results: patent US20060234343A1

What was measured:
[1] = molecular target: ErbB3 500.Fc (truncated ErbB3 ectodomain-Fc fusion protein homodimer) (human) (UniProt P21860); assay: displacement of Eu-HRGβ by unlabelled HRGβ from ErbB3 500.Fc captured on protein G
[2] = molecular target: ErbB3 500.Fc (truncated ErbB3 ectodomain-Fc fusion protein homodimer) (human) (UniProt P21860); assay: summary of the Eu-ligand displacement assays (ErbB3 fragment, HRGβ)
[3] = molecular target: ErbB2/4 full-length ectodomain-Fc heterodimer (human) (UniProt P04626); assay: displacement of Eu-BTC by unlabelled HRGβ from ErbB2/4 ectodomain-Fc captured on protein G
[4] = molecular target: full-length ErbB4 ectodomain-Fc fusion homodimer (human) (UniProt Q15303); assay: displacement of Eu-BTC by unlabelled HRGβ from ErbB4 ectodomain-Fc captured on protein G
Sequence of full-length ErbB4 ectodomain-Fc fusion homodimer (human) (Q15303 26-651): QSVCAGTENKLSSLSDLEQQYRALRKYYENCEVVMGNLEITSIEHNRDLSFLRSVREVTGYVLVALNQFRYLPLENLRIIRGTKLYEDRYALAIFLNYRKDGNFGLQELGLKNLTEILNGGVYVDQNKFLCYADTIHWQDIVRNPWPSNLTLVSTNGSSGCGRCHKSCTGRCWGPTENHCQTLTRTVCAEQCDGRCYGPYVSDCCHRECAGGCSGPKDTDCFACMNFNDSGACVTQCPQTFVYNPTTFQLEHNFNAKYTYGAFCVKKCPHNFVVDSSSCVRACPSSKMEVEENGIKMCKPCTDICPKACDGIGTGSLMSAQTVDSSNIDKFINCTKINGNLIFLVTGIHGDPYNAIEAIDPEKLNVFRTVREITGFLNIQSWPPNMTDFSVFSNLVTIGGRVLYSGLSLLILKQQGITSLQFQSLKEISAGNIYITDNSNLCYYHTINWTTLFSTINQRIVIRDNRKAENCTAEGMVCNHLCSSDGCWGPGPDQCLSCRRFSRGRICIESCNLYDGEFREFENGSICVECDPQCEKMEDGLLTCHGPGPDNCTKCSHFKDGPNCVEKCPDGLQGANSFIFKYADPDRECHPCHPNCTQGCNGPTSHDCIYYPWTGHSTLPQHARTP

[5] = molecular target: ErbB4 497.Fc (truncated ErbB4 ectodomain-Fc fusion protein homodimer) (human) (UniProt Q15303); assay: summary of the Eu-ligand displacement assays (ErbB4 fragment, HRGβ)
Sequence of ErbB4 497.Fc (truncated ErbB4 ectodomain-Fc fusion protein homodimer) (human) (Q15303 26-497, form in doubt): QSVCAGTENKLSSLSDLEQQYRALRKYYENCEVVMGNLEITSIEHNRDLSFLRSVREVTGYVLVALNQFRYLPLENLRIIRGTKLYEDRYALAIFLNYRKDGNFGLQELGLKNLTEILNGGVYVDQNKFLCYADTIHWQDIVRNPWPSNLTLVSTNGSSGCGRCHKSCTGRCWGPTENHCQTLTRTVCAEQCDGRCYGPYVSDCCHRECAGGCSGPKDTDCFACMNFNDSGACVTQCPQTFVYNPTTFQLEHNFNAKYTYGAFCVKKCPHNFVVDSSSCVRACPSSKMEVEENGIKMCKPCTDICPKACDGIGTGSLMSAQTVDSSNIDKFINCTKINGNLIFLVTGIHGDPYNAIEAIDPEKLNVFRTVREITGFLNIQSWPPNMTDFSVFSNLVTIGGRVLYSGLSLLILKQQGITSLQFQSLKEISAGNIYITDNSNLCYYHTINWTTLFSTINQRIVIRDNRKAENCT

[6] = molecular target: ErbB4 497.Fc (truncated ErbB4 ectodomain-Fc fusion protein homodimer) (human) (UniProt Q15303); assay: displacement of Eu-HRGβ by unlabelled HRGβ from ErbB4 497.Fc captured on protein G

Sequence of ErbB3 500.Fc (truncated ErbB3 ectodomain-Fc fusion protein homodimer) (human) (P21860 20-500, form in doubt): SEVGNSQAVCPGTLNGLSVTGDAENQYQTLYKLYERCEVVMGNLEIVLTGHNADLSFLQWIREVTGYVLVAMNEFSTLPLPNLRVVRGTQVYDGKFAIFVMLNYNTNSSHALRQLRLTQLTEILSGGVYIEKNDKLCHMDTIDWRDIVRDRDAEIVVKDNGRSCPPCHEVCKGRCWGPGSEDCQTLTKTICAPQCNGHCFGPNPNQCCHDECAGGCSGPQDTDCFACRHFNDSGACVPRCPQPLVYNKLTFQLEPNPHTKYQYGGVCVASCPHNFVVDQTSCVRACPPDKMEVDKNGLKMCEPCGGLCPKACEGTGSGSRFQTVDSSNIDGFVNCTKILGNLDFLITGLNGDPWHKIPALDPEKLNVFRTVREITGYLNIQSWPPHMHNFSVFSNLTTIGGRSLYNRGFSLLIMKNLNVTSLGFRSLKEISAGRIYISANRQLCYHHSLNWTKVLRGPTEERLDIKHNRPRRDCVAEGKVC

- IC50 [1]: 490 pM
- affinity [2]: < 1 nM
- change of the IC50 against the ErbB4 ectodomain-Fc homodimer [3]: 100 fold
- IC50 [4]: 18000 pM
- affinity [5]: < 1 nM
- IC50 [6]: 57 pM
Substance: β-heregulin (HRGβ, Sigma) (ligand)
